Test results published in patent US20060275803A1, “Rat and mouse members of the CRISP family of genes” (Wyeth, priority 2005, published 2006).

Key:
[1] = target: T1, substrate peptide M18 (VHRDMAAR) (not fully specified)
T1 chain: VHRDMAAR

[2] = target: T2, substrate peptide C23 (RDAQAHPG) (not fully specified)
T2 chain: RDAQAHPG

[3] = target: T3, substrate peptide O23 (KNVAMQKG) (not fully specified)
T3 chain: KNVAMQKG

[4] = target: T4, substrate peptide L16 (KTPRWGG) (not fully specified)
T4 chain: KTPRWGG

[5] = target: T5, substrate peptide M02 (EKQRIIGG) (not fully specified)
T5 chain: EKQRIIGG

[6] = target: T6, substrate peptide N17 (RKRRAVLT) (not fully specified)
T6 chain: RKRRAVLT

[7] = target: T7, substrate peptide A09 (RMRRYADA) (not fully specified)
T7 chain: RMRRYADA

[8] = target: T8, substrate peptide B20 (PQRFGRNT) (not fully specified)
T8 chain: PQRFGRNT

[9] = target: T9, substrate peptide B23 (RVKRYRQS) (not fully specified)
T9 chain: RVKRYRQS

[10] = target: T10, substrate peptide M07 (GLQRALEI) (not fully specified)
T10 chain: GLQRALEI

[11] = target: T11, substrate peptide A04 (RGARARLG) (not fully specified)
T11 chain: RGARARLG

[12] = target: T12, substrate peptide B11 (AAGVAPLS) (not fully specified)
T12 chain: AAGVAPLS

[13] = target: T13, substrate peptide A01 (WQGGRRKF) (not fully specified)
T13 chain: WQGGRRKF

[14] = target: T14, substrate peptide H03 (RNKRAVQG) (not fully specified)
T14 chain: RNKRAVQG

[15] = target: T15, substrate peptide C01 (GPQGLLGA) (not fully specified)
T15 chain: GPQGLLGA

[16] = target: T16, substrate peptide H02 (RAKRSVHF) (not fully specified)
T16 chain: RAKRSVHF

[17] = target: T17, substrate peptide C16 (RVLGLKAH) (not fully specified)
T17 chain: RVLGLKAH

[18] = target: T18, substrate peptide N05 (RARRELAP) (not fully specified)
T18 chain: RARRELAP

[19] = target: T19, substrate peptide H07 (RVKRQVRS) (not fully specified)
T19 chain: RVKRQVRS

[20] = target: T20, substrate peptide M09 (GSQHIRAE) (not fully specified)
T20 chain: GSQHIRAE

[21] = target: T21, substrate peptide A05 (SYRKVLGQ) (not fully specified)
T21 chain: SYRKVLGQ

[22] = target: T22, substrate peptide K11 (VIPRSGGS) (not fully specified)
T22 chain: VIPRSGGS

[23] = target: T23, substrate peptide A10 (SAARPAPP) (not fully specified)
T23 chain: SAARPAPP

[24] = target: T24, substrate peptide H17 (NGLRADPM) (not fully specified)
T24 chain: NGLRADPM

[25] = target: T25, substrate peptide H01 (RKKRSTKK) (not fully specified)
T25 chain: RKKRSTKK

[26] = target: T26, substrate peptide H11 (RRLLRAIP) (not fully specified)
T26 chain: RRLLRAIP

[27] = target: T27, substrate peptide J21 (LRNRAQSG) (not fully specified)
T27 chain: LRNRAQSG

[28] = target: T28, substrate peptide B22 (APQRFGKK) (not fully specified)
T28 chain: APQRFGKK

[29] = target: T29, substrate peptide E19 (RLGREGVQ) (not fully specified)
T29 chain: RLGREGVQ

[30] = target: T30, substrate peptide N08 (RKRRAPLA) (not fully specified)
T30 chain: RKRRAPLA

[31] = target: T31, substrate peptide D06 (ALAEAMKK) (not fully specified)
T31 chain: ALAEAMKK

[32] = target: T32, substrate peptide G24 (RRKRSTRE) (not fully specified)
T32 chain: RRKRSTRE

[33] = target: T33, substrate peptide J03 (PQLHSTGG) (not fully specified)
T33 chain: PQLHSTGG

[34] = target: T34, substrate peptide B17 (RQRYGKRS) (not fully specified)
T34 chain: RQRYGKRS

[35] = target: T35, substrate peptide M16 (RSRREADL) (not fully specified)
T35 chain: RSRREADL

[36] = target: T36, substrate peptide O22 (GGVRGPRV) (not fully specified)
T36 chain: GGVRGPRV

[37] = target: T37, substrate peptide N12 (AKRAASQI) (not fully specified)
T37 chain: AKRAASQI

[38] = target: T38, substrate peptide N10 (FYRADQPR) (not fully specified)
T38 chain: FYRADQPR

[39] = target: T39, substrate peptide O16 (AATRRQAV) (not fully specified)
T39 chain: AATRRQAV

[40] = test system: substrate peptide; experiment: Protease activity of rCRISPA purified with or without the sialidase inhibitor DANA; assay type: biochemical, rat
Source text: The conservation of protease activity between CRISPA and CRISPC is predicted from both the primary amino acid sequence of the PR-1 domain and the overall domain structure conserved among Tex31 and all mammalian CRISPs. The PR-1 domain of Tex31 is hypothesized to contain a basic substrate recognition site with the predicted catalytic residues His130 and Glu115. The mammalian CRISPs have these residues conserved in the PR-1 domain. […] A sialylated glycan on rCRISPA may be influencing the protein's native confirmation and ability to recognize, bind, or cleave its substrate. If rat CRISPC is glycosylated and sialylated, the glycan may also be involved in the protein's confirmation and ability to recognize, bind, or cleave its substrate.
A protocol for the purification of rCRISPA (rCRISP1) from the epididymis was published in 1997 (Hall J. C. & Tubbs C. E., Prep. Biochem. Biotechnol. 27:239-51 (1997), incorporated herein by reference). Applicants have modified this protocol to include the following amounts of 2,3-dehydro-2-deoxy-N-acetyineuraminic acid (DANA) as an inhibitor of sialidase activity in each of the following buffers:
Protease activity was determined by measuring fluorescence (as per the manufacturer's protocol) at ten minute intervals for 130 minutes in the following assay conditions: […] substrate peptide, […] rCRISPA, 100 mM NaCl, 25 mM Tris-Cl, pH 7.5. […]

B1: native rCRISPA (rCRISP1) purified from epididymis in the presence of DANA (protein)
chain: QDTTDEWDRDLENLSTTKLSVQEEIINKHNQLRRTVSPSGSDLLRVEWDHDAYVNAQKWANRCIYNHSPLQHRTTTLKCGENLFMANYPASWSSVIQDWYDESLDFVFGFGPKKVGVKVGHYTQVVWNSTFLVACGVAECPDQPLKYFYVCHYCPGGNYVGRLYSPYTEGEPCDSCPGNCEDGLCTNSCEYEDNYSNCGDLKKMVSCDDPLLKEGCRASCFCEDKIH
For B1, the “protease activity (fluorescence of substrate peptide)” value [1] was “Uncleaved peptides M18 (VHRDMAAR)”, the “protease activity (fluorescence of substrate peptide)” value [2] was “Uncleaved peptides C23 (RDAQAHPG)” and the “protease activity (fluorescence of substrate peptide)” value [3] was “Cleaved peptides O23 (KNVAMQKG)”. The “protease activity (fluorescence of substrate peptide)” value [4] was “Uncleaved peptides L16 (KTPRWGG)”, the “protease activity (fluorescence of substrate peptide)” value [5] was “Cleaved peptides M02 (EKQRIIGG)” and the “protease activity (fluorescence of substrate peptide)” value [6] was “Cleaved peptides N17 (RKRRAVLT)”. The “protease activity (fluorescence of substrate peptide)” value [7] was “Cleaved peptides A09 (RMRRYADA)”, the “protease activity (fluorescence of substrate peptide)” value [8] was “Cleaved peptides B20 (PQRFGRNT)” and the “protease activity (fluorescence of substrate peptide)” value [9] was “Cleaved peptides B23 (RVKRYRQS)”. The “protease activity (fluorescence of substrate peptide)” value [10] was “Uncleaved peptides M07 (GLQRALEI)”, the “protease activity (fluorescence of substrate peptide)” value [11] was “Cleaved peptides A04 (RGARARLG)” and the “protease activity (fluorescence of substrate peptide)” value [12] was “Uncleaved peptides B11 (AAGVAPLS)”. For the same molecule, the “protease activity (fluorescence of substrate peptide)” value [13] was “Uncleaved peptides A01 (WQGGRRKF)”, the “protease activity (fluorescence of substrate peptide)” value [14] was “Cleaved peptides H03 (RNKRAVQG)” and the “protease activity (fluorescence of substrate peptide)” value [15] was “Uncleaved peptides C01 (GPQGLLGA)”. The “protease activity (fluorescence of substrate peptide)” value [16] was “Uncleaved peptides H02 (RAKRSVHF)”, the “protease activity (fluorescence of substrate peptide)” value [17] was “Cleaved peptides C16 (RVLGLKAH)” and the “protease activity (fluorescence of substrate peptide)” value [18] was “Cleaved peptides N05 (RARRELAP)”. For the same molecule, the “protease activity (fluorescence of substrate peptide)” value [19] was “Cleaved peptides H07 (RVKRQVRS)”, the “protease activity (fluorescence of substrate peptide)” value [20] was “Uncleaved peptides M09 (GSQHIRAE)” and the “protease activity (fluorescence of substrate peptide)” value [21] was “Uncleaved peptides A05 (SYRKVLGQ)”. For the same molecule, the “protease activity (fluorescence of substrate peptide)” value [22] was “Uncleaved peptides K11 (VIPRSGGS)”, the “protease activity (fluorescence of substrate peptide)” value [23] was “Uncleaved peptides A10 (SAARPAPP)” and the “protease activity (fluorescence of substrate peptide)” value [24] was “Cleaved peptides H17 (NGLRADPM)”. For the same molecule, the “protease activity (fluorescence of substrate peptide)” value [25] was “Cleaved peptides H01 (RKKRSTKK)”, the “protease activity (fluorescence of substrate peptide)” value [26] was “Cleaved peptides H11 (RRLLRAIP)” and the “protease activity (fluorescence of substrate peptide)” value [27] was “Cleaved peptides J21 (LRNRAQSG)”. For the same molecule, the “protease activity (fluorescence of substrate peptide)” value [28] was “Cleaved peptides B22 (APQRFGKK)”, the “protease activity (fluorescence of substrate peptide)” value [29] was “Uncleaved peptides E19 (RLGREGVQ)” and the “protease activity (fluorescence of substrate peptide)” value [30] was “Cleaved peptides N08 (RKRRAPLA)”. The “protease activity (fluorescence of substrate peptide)” value [31] was “Uncleaved peptides D06 (ALAEAMKK)”, the “protease activity (fluorescence of substrate peptide)” value [32] was “Cleaved peptides G24 (RRKRSTRE)” and the “protease activity (fluorescence of substrate peptide)” value [33] was “Uncleaved peptides J03 (PQLHSTGG)”. The “protease activity (fluorescence of substrate peptide)” value [34] was “Cleaved peptides B17 (RQRYGKRS)”, the “protease activity (fluorescence of substrate peptide)” value [35] was “Uncleaved peptides M16 (RSRREADL)” and the “protease activity (fluorescence of substrate peptide)” value [36] was “Cleaved peptides O22 (GGVRGPRV)”. The “protease activity (fluorescence of substrate peptide)” value [37] was “Cleaved peptides N12 (AKRAASQI)”, the “protease activity (fluorescence of substrate peptide)” value [38] was “Uncleaved peptides N10 (FYRADQPR)” and the “protease activity (fluorescence of substrate peptide)” value [39] was “Cleaved peptides O16 (AATRRQAV)”. The “protease activity of rCRISPA” value ([40]; purified using known procedures without DANA present) was “lacking protease activity” and the “protease activity of rCRISPA” value ([40]; purified with DANA present) was “with protease activity”.
